Patent publication US20190112392A1 (Ablynx, published 2019)

Tests used:
[1] = biological target: T1, soluble recombinant cynomolgus TCR alpha/beta-zipper protein (cynomolgus/rhesus monkey); test: ELISA, 2 µg/mL coated soluble recombinant cynomolgus TCR α/β-zipper protein, OD 450 nm
T1 construct: Made in house in CHOK1SV cells; extracellular domains fused to a zipper protein; also called cynoTCR-zipper protein; not shown: zipper protein (O'Shea et al. 1993)
T1 V domain 1: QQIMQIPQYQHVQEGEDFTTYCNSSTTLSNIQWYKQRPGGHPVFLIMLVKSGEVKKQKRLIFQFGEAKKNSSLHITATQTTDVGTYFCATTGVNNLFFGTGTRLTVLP
T1 V domain 2: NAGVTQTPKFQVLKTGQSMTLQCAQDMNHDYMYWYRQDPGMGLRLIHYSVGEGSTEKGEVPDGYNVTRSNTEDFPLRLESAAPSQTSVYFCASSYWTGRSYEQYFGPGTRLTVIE
Experimental: Quality of the TCR α/β zipper proteins was assessed in an ELISA binding assay. Maxisorp 96-well ELISA plates (Nunc) were coated with 2 μg/mL soluble recombinant human TCR α/β (2XN9)-zipper protein or soluble recombinant cynomolgus TCR α/β-zipper protein. After an overnight incubation, plates were washed and blocked with PBS+1% casein for 1 h at room temperature. Next, plates were incubated with serial dilutions of either a functional flag tagged Nanobody or the functional mouse IgG anti-non-human primate/Rat TCRα/β antibody, clone R73 (eBioscience 16-5960) for 1 h at room temperature while shaking, washed again and incubated with mouse anti-flag-HRP (Sigma, #A8592) respectively rabbit anti-mouse-HRP (Dako, # P0260). After 1 h, TMB One Solution (Promega #G7431) was added. The reaction was stopped with 2M H₂SO₄ and the dose dependent binding was determined by measuring the OD at 450 nm using the Tecan sunrise 4 (FIG. 2).

human CD20 on cells [2] = biological target: T2, human CD20 on cells (human, UniProt P11836 1-297); test: flow cytometry on Ramos cells, MCF (Mean PE)
T2 construct: whole, on cells; Tumour antigen on the target cells; also called CD20 positive Ramos cells; Ramos cells
T2 sequence (looked up): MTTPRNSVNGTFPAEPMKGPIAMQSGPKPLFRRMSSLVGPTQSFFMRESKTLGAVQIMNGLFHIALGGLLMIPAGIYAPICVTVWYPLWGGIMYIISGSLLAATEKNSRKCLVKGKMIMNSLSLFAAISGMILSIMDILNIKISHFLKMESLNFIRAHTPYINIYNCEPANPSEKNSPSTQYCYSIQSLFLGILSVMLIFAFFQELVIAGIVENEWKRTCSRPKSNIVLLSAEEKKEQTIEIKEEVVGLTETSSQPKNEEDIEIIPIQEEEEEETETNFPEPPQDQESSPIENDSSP

human CD20 on cells [3] = biological target: T2, human CD20 on cells; test: flow cytometry on Raji cells, MCF (Mean PE)
[4] = biological target: T3, T cell receptor alpha/beta on purified primary human T cells (human, UniProt P01848 1-140; P01850 1-176); test: flow cytometry, purified primary human T cells; purified primary human T cells
T3 construct: whole, on cells; also called human primary T cells
T3 TCR alpha (looked up): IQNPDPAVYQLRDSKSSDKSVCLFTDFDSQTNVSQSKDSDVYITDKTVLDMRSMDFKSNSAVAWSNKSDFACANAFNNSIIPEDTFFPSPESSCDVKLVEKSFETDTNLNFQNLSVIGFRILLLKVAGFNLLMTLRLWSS
T3 TCR beta (looked up): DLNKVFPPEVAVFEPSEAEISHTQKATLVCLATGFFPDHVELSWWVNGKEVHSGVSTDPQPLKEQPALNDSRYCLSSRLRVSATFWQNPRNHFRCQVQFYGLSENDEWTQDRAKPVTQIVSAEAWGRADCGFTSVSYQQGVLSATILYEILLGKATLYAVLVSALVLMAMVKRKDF

human CD20 on cells [5] = biological target: T2, human CD20 on cells; test: cell-based or functional assay
human CD20 on cells [6] = biological target: T2, human CD20 on cells; test: cell-based or functional assay; remark: listed apart in the source
human CD20 on cells [7] = biological target: T2, human CD20 on cells; test: flow cytometry, Ramos cells
[8] = biological target: T4, T cell receptor alpha/beta on primary cynomolgus T cells (cynomolgus); test: cell-based or functional assay
[9] = biological target: T4, T cell receptor alpha/beta on primary …; test: cell-based or functional assay; remark: listed apart in the source
[10] = biological target: T3, T cell receptor alpha/beta on purified …; test: flow cytometry, purified primary human T cells
[11] = biological target: T4, T cell receptor alpha/beta on primary …; test: cell-based or functional assay; remark: listed apart in the source
[12] = biological target: T4, T cell receptor alpha/beta on primary …; test: cell-based or functional assay; remark: listed apart in the source

B1: cAblys (VHH)
VHH: DVQLQASGGGSVQAGGSLRLSCAASGYTIGPYCMGWFRQAPGKEREGVAAINMGGGITYYADSVKGRFTISQDNAKNTVYLLMNSLEPEDTAIYYCAADSTIYASYYECGHGLSTGGYGYDSWGQGTQVTVSS
notes: also called cAblys3; irrelevant anti-egg lysozyme Nanobody
binding result [1]: no binding (tested: 1e-6 M)

B2: anti-CD20 Nanobody (VHH)
VHH: EVQLVESGGGLVQPGGSLRLSCTFSGGTFSSYTMGWFRQAPGKEREFVAEVRWGGVTTYSNSLKDRFSISEDSVKNAVYLQMNSLKPEDTAVYYCAAVRQMYMTVVPDYWGQGTLVTVSS
EC50 (read off the curve) (human CD20 on cells [2]): ~9 nM | EC50 (read off the curve) (human CD20 on cells [3]): ~20 nM

B3: T017000068 (bispecific antibody)
chain: EVQLVESGGGLVQPGGSLRLSCTFSGGTFSSYTMGWFRQAPGKEREFVAEVRWGGVTTYSNSLKDRFSISEDSVKNAVYLQMNSLKPEDTAVYYCAAVRQMYMTVVPDYWGQGTLVTVSSGGGGSGGGGSGGGGSGGGGSGGGGSGGGGSGGGGSEVQLVESGGGLVQPGGSLRLSCITSGETFKINIWGWYRQAPGKQRELVASLTIGGATNYADSVKGRFTISEDSAKNTVYLQMNSLKPEDTAVYFCNAKSRLYPYDYWGQGTLVTVSSGAADYKDHDGDYKDHDIDYKDDDDKGAAHHHHHH
notes: CD20 x TCR bispecific Nanobody construct (cluster B); entry includes the FLAG3-HIS6 tag; also called 20CD019C07-35GS-T0170055C07-FLAG3-HIS6
EC50 [4]: 6.2 nM | IC50, xCELLigence human T cell mediated CHO-K1 CD20 killing assay, E:T 30:1, 44 h (human CD20 on cells [5]): 13 nM | IC50, flow cytometry based human T cell mediated Ramos killing assay, E:T 10:1 (human CD20 on cells [6]): 1 nM | EC50 (human CD20 on cells [7]): 1.8 nM

B4: T017000076 (bispecific antibody)
chain: EVQLVESGGGLVQPGGSLRLSCTFSGGTFSSYTMGWFRQAPGKEREFVAEVRWGGVTTYSNSLKDRFSISEDSVKNAVYLQMNSLKPEDTAVYYCAAVRQMYMTVVPDYWGQGTLVTVSSGGGGSGGGGSGGGGSGGGGSGGGGSGGGGSGGGGSEVQLVESGGGLVQPGGSLRLSCVASGDVHKINFLGWYRQAPGKEREKVAHISIGDQTDYADSAKGRFTISRDESKNMVYLQMNSLKPEDTAVYFCRAFSRIYPYDYWGQGTLVTVSSGAADYKDHDGDYKDHDIDYKDDDDKGAAHHHHHH
notes: CD20 x TCR bispecific Nanobody construct (cluster A); entry includes the FLAG3-HIS6 tag; also called 20CD019C07-35GS-T0170056G05-FLAG3-HIS6
IC50, xCELLigence cynomolgus T cell mediated CHO-K1 human CD20 killing assay, E:T 30:1 [8]: 0.67 nM | IC50, xCELLigence human T cell mediated CHO-K1 CD20 killing assay, E:T 30:1, 44 h (human CD20 on cells [5]): 0.36 nM | IC50, flow cytometry based cynomolgus T cell mediated B cell (Ramos) killing assay [9]: 0.309 nM | EC50 [10]: 130 nM | IC50, cynomolgus T cell dependent B cell (Ramos) killing assay [11]: 0.52 nM | IC50, flow cytometry based human T cell mediated Ramos killing assay, E:T 10:1 (human CD20 on cells [6]): 0.3 nM | IC50, xCELLigence cynomolgus T cell mediated CHO-K1 human CD20 killing assay [12]: 0.14 nM | EC50 (human CD20 on cells [7]): 1.8 nM
